{"source": "the nanobody polyreactivity screen of Harvey et al. (2022)"}
{"assay": "yeast display, Sf9 membrane polyspecificity reagent, FACS + sequencing; frameworks hold sequencing errors", "method_in_brief": "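In a synthetic yeast display library (Saccharomyces cerevisiae BJ5465), nanobody expression was induced with galactose for 36–48 hours. FACS gates were set low and high (top ~1%) using anti-HA fluorescence for expression and streptavidin fluorescence for binding of the Sf9 membrane reagent. Each polyreactivity label is drawn from the gate of origin.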"}
{"sequence": "QVQLVESGGGLVQAGGSLRLSCAASGSTFPANAMGWYRPAPGKERELVATSSWSGGRTYYADSVKGRFTISRDNAKNTVDLQMNSLKPEDTAVYYCAKGYYWLSTYGDSRYGYWGQGTQVTVSS", "polyreactivity (PSR sort gate)": "high polyreactivity"}
{"sequence": "QVQLVESGGGLVQAGGSLRLSCAASGSTFPAYAMGWYRQAPGKERELVATITYTGGSTYYADSVKGRFTISRDNAKNTVYLQMNSLKPEDTAVYYCAADRLVQEDEFDYWGQGTQVTVSS", "polyreactivity (PSR sort gate)": "low polyreactivity"}
{"sequence": "QVQLVESGGGLVQAGGSLRLSCAASGSTFPDNAMGWYRQAPGKERELVAAISFSSGSTYYADSVKGRFTISRDNAKNTVYLQMNILKPEDTAVYYCAVANPSQYEWIAYYYWGQGTQVTVSS", "polyreactivity (PSR sort gate)": "low polyreactivity"}
{"sequence": "QVQLVESGGGLVQAGGSLRLSCAASGSTFPDYVMGRYRQAPGKERELVAAFSSIGGSTYYADSVKGRFTISRDNAKNTVYLQMNCLKPEDTAVYYCAAENSYFYPFDYWGQGTQVTVSS", "polyreactivity (PSR sort gate)": "low polyreactivity"}
{"sequence": "QVQLVESGGGLVQAGGSLRLSCAASGSTFPFYAMGWYRPAPGKERELVAAITSGGSTYADSVKGRFTISRDNAKNSVYLQMNSLKPEDTAVYYCAASWPRWWRFGYWGQGTQVTVSS", "polyreactivity (PSR sort gate)": "low polyreactivity"}
{"sequence": "QVQLVESGGGLVQAGGSLRLSCAASGSTFPFYAMGWYRQAPGTERELVAAITSGGSTYADSVKGRFTISRDNAKNTVYLQMNSLKPEDTAVYYCAASWPRWWRFGYWGQGTQVTVSS", "polyreactivity (PSR sort gate)": "low polyreactivity"}
{"sequence": "QVQLVESGGGLVQAGGSLRLSCAASGSTFPGNALGSYRQAPGKERELVAAIRDRGTSTYYADSVKGRFTISRDNAKNTFYLQMNSLKPEDTAVYYCAASSSNKEYDYWGQGTQVTVSS", "polyreactivity (PSR sort gate)": "high polyreactivity"}
{"sequence": "QVQLVESGGGLVQAGGSLRLSCAASGSTFPGNAMGWYRQAPGKERELVAAINWSGDSTYYADSVKGRFTISRDNAKNTVYLQMNSLKPEDTAVYYCAAYGDGYYYWGQGTQVTVSS", "polyreactivity (PSR sort gate)": "low polyreactivity"}
{"sequence": "QVQLVESGGGLVQAGGSLRLSCAASGSTFPGNAMGWYRQAPGKERELVASISGGGDSTYYADSVKGRFTISRDNAKNTVYLQMISLKPEDTAVYYCAVDIDSNSGTRDYWGQGTQVTVSS", "polyreactivity (PSR sort gate)": "low polyreactivity"}
{"sequence": "QVQLVESGGGLVQAGGSLRLSCAASGSTFPGYAMGWYRQAPGKERELVAAGGSTYYADSVKGRFTISRDNAKNTVYLQMNSLKPEDTAVYYCAATWGSVQKGTYYYWGQGTQVTVSS", "polyreactivity (PSR sort gate)": "low polyreactivity"}
{"sequence": "QVQLVESGGGLVQAGGSLRLSCAASGSTFPHYTMGWYRQAPGKERELVAVISRSGRTYYADSVKGRFTISRDNAKNTVYLQMNSLKPEDTAVYYCAVLVGRLVWSYNHWGQGTQVTVSS", "polyreactivity (PSR sort gate)": "high polyreactivity"}
{"sequence": "QVQLVESGGGLVQAGGSLRLSCAASGSTFPKYAMGWYRQAPGKERELVAVITSGGSTYYADSVMGRFTISRDNAKNTVYLQMNSLKPEDTAVYYCAARKYRRFDYWGQGTQVTVSS", "polyreactivity (PSR sort gate)": "high polyreactivity"}
{"sequence": "QVQLVESGGGLVQAGGSLRLSCAASGSTFPKYGMGWYRQAPGKESEFVARINWNGGGTYYADSVKGRFTISRDNAKNTVYLQMNSLKPEDTAVYYCNARKRGARFILGYDYWGQGTQVTVSS", "polyreactivity (PSR sort gate)": "low polyreactivity"}
{"sequence": "QVQLVESGGGLVQAGGSLRLSCAASGSTFPLNAMGWYRQAPGKESEFLDAISYRGSSTYYADSVKGRFTISRDNAKNTVYLQMNSLKPEDTAVYYCSANPNTYYYRRGYDYWGQGTQVTVSS", "polyreactivity (PSR sort gate)": "high polyreactivity"}
{"sequence": "QVQLVESGGGLVQAGGSLRLSCAASGSTFPLYAMGWYRPAPGKEREFVAAINRSTGTTYYADSVKGRFTISRDNAKNTVYLQMNSLKPEDTAVYYCAARVYYRTVLGGYYYWGQGTQVTVSS", "polyreactivity (PSR sort gate)": "low polyreactivity"}
{"sequence": "QVQLVESGGGLVQAGGSLRLSCAASGSTFPLYTMGWYRQAPGKERELVAAINYGGTSTYYADSVKGRFTISRDNAKNTVYLQMNSLKPEDTAVYYCKQFVPGRYYWGQGTQVTVSS", "polyreactivity (PSR sort gate)": "high polyreactivity"}
{"sequence": "QVQLVESGGGLVQAGGSLRLSCAASGSTFPPNAMGWYRQAPGKERELVAAISFSSGRTYYADSVKGRFTISRDNAKNTVYLQMNSLKPEDTAVYYCAADHGYWGQGTQVTVSS", "polyreactivity (PSR sort gate)": "low polyreactivity"}
{"sequence": "QVQLVESGGGLVQAGGSLRLSCAASGSTFPPYAMGWYRQAPGKERELVAAITASGGRTYYADSVKGRFTLSRDNAKNTVYLQMNSLKPEDTAVYYCAALRGSTYDYWGQGTQVTVSS", "polyreactivity (PSR sort gate)": "high polyreactivity"}
{"sequence": "QVQLVESGGGLVQAGGSLRLSCAASGSTFPPYGMGWYRQAPGKERELVASITSGGSTNYADSVKGRFTISRDNAKNTVYLQMNSLKPEDTAVYYCNADLHSHYDYWGQGTQVTVSS", "polyreactivity (PSR sort gate)": "low polyreactivity"}
{"sequence": "QVQLVESGGGLVQAGGSLRLSCAASGSTFPRNAMGWYRQAPGKERELVAVITGSGGSTYYADSVKGRFTISRDNAKNTVYLQMNSLKPEDTAVYYCNARPTRRTRYDSWGQGTQVTVSS", "polyreactivity (PSR sort gate)": "high polyreactivity"}
{"sequence": "QVQLVESGGGLVQAGGSLRLSCAASGSTFPRYAMGWYIPAPGNERELVAAISSGGSTYYADSVKGRFTISRDNAKNTVYLQMNSLKPEDTAVYYCNARRSRSRYDYWGQGTQVTVSS", "polyreactivity (PSR sort gate)": "high polyreactivity"}
{"sequence": "QVQLVESGGGLVQAGGSLRLSCAASGSTFPRYAMGWYRQAPGKERELVASITSDGGSTYYADSVKGRFTISRDNAMNTVYLQLNSLKPEDTAVYYCNKVTYRGYRRYGYWGQGTQVTVSS", "polyreactivity (PSR sort gate)": "high polyreactivity"}
{"sequence": "QVQLVESGGGLVQAGGSLRLSCAASGSTFPRYGMGWYRQAPGKERELVATITNGAITYYADSVKGRFTISRDNAKNTVYLQMNSLKPEDTAVYYCAARHFQVPDYFPEYHYWGQGTQVTVSS", "polyreactivity (PSR sort gate)": "low polyreactivity"}
{"sequence": "QVQLVESGGGLVQAGGSLRLSCAASGSTFPSYAMGWYRQAPGKERELVAAINSGGGTNYADSVKGRFTISRDNAKNTVYLQMNSLKPEDTAVYYCNTDILSIYAEPYYFTDVDYWGQGTQVTVSS", "polyreactivity (PSR sort gate)": "low polyreactivity"}
{"sequence": "QVQLVESGGGLVQAGGSLRLSCAASGSTFPSYAMGWYRQAPGKERELVAAISRSGGSTYYADSVKGRFTISRDNAKNTVYLQMNSLKPEDTAVYYCAARGHLRYESDYWGQGTQVTVSS", "polyreactivity (PSR sort gate)": "high polyreactivity"}
{"sequence": "QVQLVESGGGLVQAGGSLRLSCAASGSTFPSYAMGWYRQAPGKERELVAAITNGGSTTYADSVKGRFTISRDNAKNTVYIQMNSLKPEDTAVYYCAARYYYYYYYIRRDYWGQGTQVTVSS", "polyreactivity (PSR sort gate)": "low polyreactivity"}
{"sequence": "QVQLVESGGGLVQAGGSLRLSCAASGSTFPSYVMGWYRQAPGKEREMVAAISSSGGRTYYADSVKGRFTISRDNAKNTVYLQMNSLKPEDTAVYYCAAKRGPLVNDHQFWGQGTQVTVSS", "polyreactivity (PSR sort gate)": "high polyreactivity"}
{"sequence": "QVQLVESGGGLVQAGGSLRLSCAASGSTFPTNTMGWYRQAPGKERELVATIRKSSGRTYYADSVKGRFTISRDNAKNTVYLQMNSLKPEDTAVYYCNARRYSGALRYDYWGQGTQVTVSS", "polyreactivity (PSR sort gate)": "high polyreactivity"}
{"sequence": "QVQLVESGGGLVQAGGSLRLSCAASGSTFPTYAMGWYRQAPGKERELVAAITSGSGTNTYYADSVKGRFTISRDNAKNTVYLQMNSLKPEDTAVYYCAKSFRKKYGWGQGTQVTVSS", "polyreactivity (PSR sort gate)": "high polyreactivity"}
{"sequence": "QVQLVESGGGLVQAGGSLRLSCAASGSTFPTYAMGWYRQAPGKERELVADITWSGGSTYYADSVKGRFTISRDNAKNTVYLQMNSLKPEDTAVYYCNAAHRKGMYYWGQGTQVTVSS", "polyreactivity (PSR sort gate)": "high polyreactivity"}
{"sequence": "QVQLVESGGGLVQAGGSLRLSCAASGSTFPTYGMGWYRQAPGKEREFVARINWNGGGTYYADSVKGRFTISRDNAKNTVYLQMNSLKPEDTAVYYCNARKRGARFILGYDYWGQGTQVTVSS", "polyreactivity (PSR sort gate)": "low polyreactivity"}
{"sequence": "QVQLVESGGGLVQAGGSLRLSCAASGSTFPVNAMGWYIQAPGKERELVARIRGSGGSTYYADSVKGRFTISRDNAKNTVYLQMNSLKPEDTAVYYCNADPVRSGLDYWGQGTQVTVSS", "polyreactivity (PSR sort gate)": "high polyreactivity"}
{"sequence": "QVQLVESGGGLVQAGGSLRLSCAASGSTFPVNAMGWYRQAPGKERELVAAISSRGSSTYYADSVKGRFTISRDNAKNTVYLQMNSLKPVDTAVYYCAAPQRYPRFYYWGQGTQVTVSS", "polyreactivity (PSR sort gate)": "high polyreactivity"}
{"sequence": "QVQLVESGGGLVQAGGSLRLSCAASGSTFPVNAMGWYRQAPGKERELVAAISSTGTSTYYADSVKGRFTISRDNAKNTVYLQMNSLKPEDTAGYYCAAETWVWGYVLYDYWGQGTQVTVSS", "polyreactivity (PSR sort gate)": "high polyreactivity"}
{"sequence": "QVQLVESGGGLVQAGGSLRLSCAASGSTFPVNAMGWYRQAPGKEREMVASITWGDGSTYYADSVKGRFTISRDNAKNTVYLQMNSLKPEDTADYYCNKDFFYGYDAASYRPEYDYWGQGTQVTVSS", "polyreactivity (PSR sort gate)": "low polyreactivity"}
{"sequence": "QVQLVESGGGLVQAGGSLRLSCAASGSTFPVNTMGWYRQAPGKERELVAAISWSGGRTYYADSVKGRFTISRDNAKNTVYLQMNSLKPEDTAVYYCAAEWEGTYTTVPDEFNYWGQGTQVTVSS", "polyreactivity (PSR sort gate)": "high polyreactivity"}
{"sequence": "QVQLVESGGGLVQAGGSLRLSCAASGSTFPVYAMGWYIQAPGKERELVAAISYSGTRTYYADSVKGRFTISRDNAKNTVYLQMNSLKPEDTAVYYCAADFEGYGQGYGYWGQGTQVTVSS", "polyreactivity (PSR sort gate)": "low polyreactivity"}
{"sequence": "QVQLVESGGGLVQAGGSLRLSCAASGSTFPVYAMGWYRQAPGKERELVAAITSGGSTNYADSVKGRFTISRDNAKNTVYLQMNSLKPEDTAVYYCNAEDIYRKRDFYHRLYDYWGQGTQVTVSS", "polyreactivity (PSR sort gate)": "low polyreactivity"}
{"sequence": "QVQLVESGGGLVQAGGSLRLSCAASGSTFPVYAMGWYRQAPGKERELVAAITSGGSTYYADSVKGRFTISRDNAKNTVYLQMNSLKPEDTAVYYCAAEDSSPAYNHWGQGTQVTVSS", "polyreactivity (PSR sort gate)": "low polyreactivity"}
{"sequence": "QVQLVESGGGLVQAGGSLRLSCAASGSTFPYNAKGWYRQAPGKERELVAAITTRGSTYYADSVKGRFTISRDNAKNTVYLQMNSLNPEESAVYYCANGPSLWYRSSFRGEGDYWGQGTQVTVSS", "polyreactivity (PSR sort gate)": "low polyreactivity"}
{"sequence": "QVQLVESGGGLVQAGGSLRLSCAASGSTFPYNAMGWYIQAPGKERELVAAISSRGGRTYYADSVKGRFSISRDNAKYTVYLQMNSLKPEDTAVYYCAARVVSRKDMNYWGQGTQVTVSS", "polyreactivity (PSR sort gate)": "high polyreactivity"}
{"sequence": "QVQLVESGGGLVQAGGSLRLSCAASGSTFPYNAMGWYRQAPGKDRELVAAITWRAGRTYYADSVKGRFTISRDNAKNTVYLQMNSLKPEDTAVYYCAKSYQRGVNHYEYWGQGTQVTVSS", "polyreactivity (PSR sort gate)": "high polyreactivity"}
{"sequence": "QVQLVESGGGLVQAGGSLRLSCAASGSTFPYNAMGWYRQAPGKEREFVAAITSDDTTNYADSVKGRFTISRDNAKKTVYLQMNSLKPEDTAVYYCAAEYRYPYLRGAGDYWGQGTQVTVSS", "polyreactivity (PSR sort gate)": "low polyreactivity"}
